From patent publication US20170174789A1 (Regeneron, published 2017) come the findings set out here.

In one test the target is T1, hTie2 (Ig1-Ig2-EGF) (human, UniProt Q02763 24-344).
T1 construct: Domain-deletion construct; also used for H/D exchange
The test is described as follows: Luminex bead binding. As for the experimental part:
(§1) For binding, 25 μl of anti-Tie2 antibody (25 μg/ml) was added to 75 μl of the above created Luminex bead mixture (3×10³ beads per construct) in binding buffer (PBS, 0.05% Tween 20, 1 mg/ml BSA, 0.05% sodium azide) into a 96 well filter plate (Millipore). Incubation was at room temperature (RT) for 90 min or overnight at 4° C. with shaking. The beads were washed 3× with washing buffer (PBS+0.05% Tween 20) resuspended in 100 μl binding buffer containing PE (phycoerythrine)-labeled anti human kappa or PE-labeled anti mouse Fab secondary antibody and incubated at RT for 45 min with shaking. Samples were washed 2× more and binding signal (MFI) for each bead was determined using a Luminex L200 or FLEXMAP3D instrument. Bead linked human Tie2 was used as positive control and bead linked human Tie1 was used to measure family cross-reactivity. In general MFI signals greater than 500 units represent significant binding.

The next test has as its target T2, hTie2 (Ig2-EGF) (human, UniProt Q02763 121-344).
T2 construct: Domain-deletion construct linked to Luminex beads
The test is described as follows: Luminex bead binding. As for the experimental part:
as §1

The next test concerns the target T3, hTie2 (EGF) (human, UniProt Q02763 210-344).
T3 construct: Domain-deletion construct linked to Luminex beads
The test is described as follows: Luminex bead binding. As for the experimental part:
as §1

In test [1] the target is hTie2 on 293-Tie2/SRE-Luc cells (human, UniProt Q02763 23-1124). The test is described as follows: cell-based or functional assay.
The target of another test is T4, hTie2-His (human, UniProt Q02763 23-745).
T4 construct: also called ecto-Tie2 fused to 6xHis; biotin-Tie2-His
The test is described as follows: SPR Biacore 25C, mAb captured. As for the experimental part:
(§2) (Tables 3-6). Measurements were conducted on a Biacore 2000 or T200 instrument.
(§3) For antibodies with a mouse constant region (designated H1M or H2M), antibodies were immobilized onto an anti-mouse Fc sensor surface and different concentrations of human, mouse or rat Tie2 constructs (hTie2-His, mTie2-hFc and rTie2-hFc) were injected over the antibody captured surface. For antibodies in the human IgG format (designated H1H or H4H), either an anti-human Fc sensor surface (hTie2-His and hTie2-mFc) or anti-human Fab sensor surface (mTie2-hFc and rTie2-hFc) was employed depending on the Tie-2 construct applied to the antibody captured surface. Amino acid sequences of the constructs used in this Example are as follows: hTie2-His (SEQ ID NO:2); hTie2-hFc (SEQ ID NO:3); hTie2-mFc (SEQ ID NO:4); rTie2-hFc (SEQ ID NO:5); and mTie2-hFc (SEQ ID NO:6).
(§4) Kinetic rate constants—association rate (ka) and dissociation rate (kd) were determined by fitting the real time binding sensorgrams to a 1:1 binding model with mass transport limitation using Scrubber 2.0 curve fitting software. The equilibrium dissociation constant (KD) and dissociative half-life (T½) were calculated from the kinetic rate constants as: KD (M)=kd/ka; and T½ (min)=(In2/(60*kd).).
A general note: In SPR one partner is held on a chip, and binding of the other changes the refractive index at the surface.

The target of the next test is T5, rTie2-hFc (rat).
T5 construct: also called rat Tie2
T5 sequence (chain, as listed by the source limits assumed): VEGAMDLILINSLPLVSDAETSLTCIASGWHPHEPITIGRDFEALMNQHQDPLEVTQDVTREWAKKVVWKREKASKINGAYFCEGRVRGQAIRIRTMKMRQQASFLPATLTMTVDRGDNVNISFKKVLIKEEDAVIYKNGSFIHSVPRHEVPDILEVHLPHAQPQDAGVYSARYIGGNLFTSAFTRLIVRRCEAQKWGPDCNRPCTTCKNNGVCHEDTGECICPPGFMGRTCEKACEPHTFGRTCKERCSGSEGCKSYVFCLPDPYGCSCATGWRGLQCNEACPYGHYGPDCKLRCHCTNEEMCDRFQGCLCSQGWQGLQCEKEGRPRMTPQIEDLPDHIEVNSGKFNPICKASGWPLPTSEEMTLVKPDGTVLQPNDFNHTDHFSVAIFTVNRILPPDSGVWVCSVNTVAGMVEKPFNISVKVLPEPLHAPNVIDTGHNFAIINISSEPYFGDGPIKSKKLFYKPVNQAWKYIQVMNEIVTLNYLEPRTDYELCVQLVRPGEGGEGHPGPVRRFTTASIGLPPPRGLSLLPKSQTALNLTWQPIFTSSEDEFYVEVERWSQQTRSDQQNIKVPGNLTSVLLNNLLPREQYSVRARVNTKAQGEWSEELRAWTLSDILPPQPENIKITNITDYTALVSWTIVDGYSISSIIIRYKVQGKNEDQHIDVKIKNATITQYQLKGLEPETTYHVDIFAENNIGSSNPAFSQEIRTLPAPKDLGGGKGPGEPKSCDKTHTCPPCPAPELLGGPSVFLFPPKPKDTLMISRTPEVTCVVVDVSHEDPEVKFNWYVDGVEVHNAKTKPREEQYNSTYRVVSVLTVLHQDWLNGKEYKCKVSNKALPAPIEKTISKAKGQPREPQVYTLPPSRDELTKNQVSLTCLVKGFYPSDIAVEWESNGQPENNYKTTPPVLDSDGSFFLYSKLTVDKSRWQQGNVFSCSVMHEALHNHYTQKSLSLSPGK
The test is described as follows: SPR Biacore 25C, mAb captured. As for the experimental part: as §2, §3, §4

In another test the target is T6, hTie2-mFc (human).
T6 chain: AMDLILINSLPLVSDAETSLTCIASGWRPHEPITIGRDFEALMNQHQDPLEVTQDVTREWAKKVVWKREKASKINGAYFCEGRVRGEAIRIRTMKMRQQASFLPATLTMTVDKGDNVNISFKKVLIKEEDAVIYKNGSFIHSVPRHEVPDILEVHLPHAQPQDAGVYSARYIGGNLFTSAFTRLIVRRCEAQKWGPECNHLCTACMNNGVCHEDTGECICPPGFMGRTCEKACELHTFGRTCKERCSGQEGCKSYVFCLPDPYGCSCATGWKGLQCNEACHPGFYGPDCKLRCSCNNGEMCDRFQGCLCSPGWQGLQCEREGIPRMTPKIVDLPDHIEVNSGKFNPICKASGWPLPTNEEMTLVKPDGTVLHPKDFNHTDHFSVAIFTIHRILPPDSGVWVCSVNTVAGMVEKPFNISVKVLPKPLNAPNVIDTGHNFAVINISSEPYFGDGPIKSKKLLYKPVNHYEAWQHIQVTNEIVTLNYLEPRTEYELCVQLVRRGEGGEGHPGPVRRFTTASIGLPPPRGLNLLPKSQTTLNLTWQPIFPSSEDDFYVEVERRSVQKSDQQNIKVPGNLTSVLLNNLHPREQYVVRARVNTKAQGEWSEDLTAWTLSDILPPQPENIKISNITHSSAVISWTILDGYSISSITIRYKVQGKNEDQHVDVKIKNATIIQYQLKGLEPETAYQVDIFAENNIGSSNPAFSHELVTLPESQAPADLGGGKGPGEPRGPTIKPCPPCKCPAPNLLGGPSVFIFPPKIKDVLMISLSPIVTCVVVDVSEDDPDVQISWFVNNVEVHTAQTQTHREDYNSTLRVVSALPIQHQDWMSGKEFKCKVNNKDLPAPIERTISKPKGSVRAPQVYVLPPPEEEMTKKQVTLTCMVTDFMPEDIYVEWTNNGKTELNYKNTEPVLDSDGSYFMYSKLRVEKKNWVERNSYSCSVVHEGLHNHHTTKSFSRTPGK
The test is described as follows: SPR Biacore 25C, mAb captured. How it is done:
as §2, §3, §4

In the next test the target is T7, mTie2-hFc (mouse).
T7 construct: also called mouse Tie2
The test is described as follows: SPR Biacore 25C, mAb captured. How it is done: as §2, §3, §4

T3 sequence (Q02763 other isoform, or with tags, fused parts or gaps limits assumed): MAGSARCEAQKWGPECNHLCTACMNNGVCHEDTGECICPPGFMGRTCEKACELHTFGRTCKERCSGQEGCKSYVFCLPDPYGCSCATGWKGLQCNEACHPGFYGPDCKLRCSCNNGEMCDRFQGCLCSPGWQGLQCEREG
T2 sequence (Q02763 other isoform, or with tags, fused parts or gaps limits assumed): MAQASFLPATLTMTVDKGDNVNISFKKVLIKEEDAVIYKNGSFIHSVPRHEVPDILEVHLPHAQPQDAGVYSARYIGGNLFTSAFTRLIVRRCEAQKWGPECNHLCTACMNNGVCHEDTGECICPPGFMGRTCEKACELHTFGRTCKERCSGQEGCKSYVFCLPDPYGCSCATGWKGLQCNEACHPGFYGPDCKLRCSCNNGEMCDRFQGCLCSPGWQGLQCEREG

B1: H1H2339B (antibody, V domains shown)
VH: EVQLVESGGGLVQPGGSLRLSCAASGFTFSSYAMNWVRQAPGKGLEWVSSISGSGGNTYYADSVKGRFTISRDNSKNTLYLQLNSLRAEDTAVYYCAKDHSLSWYRNVFDIWGQGTMVTVSS
VL: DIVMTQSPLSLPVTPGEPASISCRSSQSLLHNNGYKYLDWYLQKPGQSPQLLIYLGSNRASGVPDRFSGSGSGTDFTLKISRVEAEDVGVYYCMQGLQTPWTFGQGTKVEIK
notes: Tested as H1H2339B (human IgG format, H1H prefix)
As a reminder, the Kd is a measure of binding affinity in units of concentration. Read a high Kd as lower affinity. In general, koff refers to the first-order rate constant of dissociation. The term kon denotes a measure of how fast the partners come together. A higher kon goes with fast association. Take B1: the binding result is recorded as “no binding (tested: MFI >500 = significant binding)” with hTie2 (Ig1-Ig2-EGF), “no binding (tested: MFI >500 = significant binding)” with hTie2 (Ig2-EGF), “no binding (tested: MFI >500 = significant binding)” with hTie2 (EGF) and “no binding” in the test with rTie2-hFc. Also, the “EC50, Tie2 dependent luciferase activity, 293-Tie2/SRE-Luc cells with 1 nM BowAng1” value in test [1] stood at 10.3 nM. The “EC50, Tie2 dependent luciferase activity, 293-Tie2/SRE-Luc cells with 1 nM BowAng2” value in test [1] was found to be 13 nM. Moreover, the Kd with hTie2-His was 22.4 nM; with hTie2-mFc, 0.67 nM; with mTie2-hFc, 56.3 nM. Further, the “T½” value amounted to 9 min with hTie2-His, 114 min with hTie2-mFc and 4 min with mTie2-hFc. The koff came out at 0.00125 s⁻¹ with hTie2-His, 0.000102 s⁻¹ with hTie2-mFc and 0.00263 s⁻¹ with mTie2-hFc. Moreover, the figures for the kon in the test with hTie2-His, with hTie2-mFc and with mTie2-hFc were 55800 M⁻¹ s⁻¹, 151000 M⁻¹ s⁻¹ and 46800 M⁻¹ s⁻¹, respectively.

B2: H1H2340B (antibody, V domains shown)
VH: EVQLVESGGGLVQPGGSLRLSCAASGFTFSRYWMSWVRQAPGMGLEWVANIKQDGSEKNYVDSVKGRFTVSRDNAKNSLYLQMNSLRAEDTAVYYCASAIFGVVITSYWGQGTLVTVSS
VL: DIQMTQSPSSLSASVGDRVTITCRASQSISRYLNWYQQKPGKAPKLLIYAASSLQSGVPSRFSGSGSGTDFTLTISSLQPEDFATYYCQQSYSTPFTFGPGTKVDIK
notes: Tested as H1H2340B (human IgG format, H1H prefix); also called HIH2340B
For the molecule B2, the binding result with hTie2 (Ig1-Ig2-EGF), in the test with hTie2 (Ig2-EGF) and with hTie2 (EGF) was “no binding (tested: MFI >500 = significant binding)” in each case. The “EC50, Tie2 dependent luciferase activity, 293-Tie2/SRE-Luc cells with 1 nM BowAng1” value in test [1] came out at 1.41 nM. Further, the “EC50, Tie2 dependent luciferase activity, 293-Tie2/SRE-Luc cells with 1 nM BowAng2” value in test [1] is 2.1 nM. The Kd is 49.2 nM with hTie2-His, 25.9 nM with rTie2-hFc, 1.16 nM in the test with hTie2-mFc and 49.6 nM in the test with mTie2-hFc. For the same molecule, the “T½” value worked out at 3 min with hTie2-His, 3 min with rTie2-hFc, 60 min in the test with hTie2-mFc and 2 min with mTie2-hFc. The koff with hTie2-His turned out to be 0.00345 s⁻¹; with rTie2-hFc it was 0.00371 s⁻¹; with hTie2-mFc, 0.000191 s⁻¹; with mTie2-hFc, 0.00672 s⁻¹. Moreover, the kon with hTie2-His worked out at 70100 M⁻¹ s⁻¹; in the test with rTie2-hFc it was 143000 M⁻¹ s⁻¹; in the test with hTie2-mFc, 165000 M⁻¹ s⁻¹; with mTie2-hFc, 136000 M⁻¹ s⁻¹.
